Source: IntAct's records for PubMed 19141287

B1: Mitotic checkpoint serine/threonine-protein kinase BUB1 (Homo sapiens), O43683 (parent)
chain: MDTPENVLQMLEAHMQSYKGNDPLGEWERYIQWVEENFPENKEYLITLLEHLMKEFLDKKKYHNDPRFISYCLKFAEYNSDLHQFFEFLYNHGIGTLSSPLYIAWAGHLEAQGELQHASAVLQRGIQNQAEPREFLQQQYRLFQTRLTETHLPAQARTSEPLHNVQVLNQMITSKSNPGNNMACISKNQGSELSGVISSACDKESNMERRVITISKSEYSVHSSLASKVDVEQVVMYCKEKLIRGESEFSFEELRAQKYNQRRKHEQWVNEDRHYMKRKEANAFEEQLLKQKMDELHKKLHQVVETSHEDLPASQERSEVNPARMGPSVGSQQELRAPCLPVTYQQTPVNMEKNPREAPPVVPPLANAISAALVSPATSQSIAPPVPLKAQTVTDSMFAVASKDAGCVNKSTHEFKPQSGAEIKEGCETHKVANTSSFHTTPNTSLGMVQATPSKVQPSPTVHTKEALGFIMNMFQAPTLPDISDDKDEWQSLDQNEDAFEAQFQKNVRSSGAWGVNKIISSLSSAFHVFEDGNKENYGLPQPKNKPTGARTFGERSVSRLPSKPKEEVPHAEEFLDDSTVWGIRCNKTLAPSPKSPGDFTSAAQLASTPFHKLPVESVHILEDKENVVAKQCTQATLDSCEENMVVPSRDGKFSPIQEKSPKQALSSHMYSASLLRLSQPAAGGVLTCEAELGVEACRLTDTDAAIAEDPPDAIAGLQAEWMQMSSLGTVDAPNFIVGNPWDDKLIFKLLSGLSKPVSSYPNTFEWQCKLPAIKPKTEFQLGSKLVYVHHLLGEGAFAQVYEATQGDLNDAKNKQKFVLKVQKPANPWEFYIGTQLMERLKPSMQHMFMKFYSAHLFQNGSVLVGELYSYGTLLNAINLYKNTPEKVMPQGLVISFAMRMLYMIEQVHDCEIIHGDIKPDNFILGNGFLEQDDEDDLSAGLALIDLGQSIDMKLFPKGTIFTAKCETSGFQCVEMLSNKPWNYQIDYFGVAATVYCMLFGTYMKVKNEGGECKPEGLFRRLPHLDMWNEFFHVMLNIPDCHHLPSLDLLRQKLKKVFQQHYTNKIRALRNRLIVLLLECKRSRK

Variants of: B1
Settings: with KNL1, Q8NG31-2
Sequence of KNL1, Q8NG31-2 (Q8NG31 other isoform, or with tags, fused parts or gaps): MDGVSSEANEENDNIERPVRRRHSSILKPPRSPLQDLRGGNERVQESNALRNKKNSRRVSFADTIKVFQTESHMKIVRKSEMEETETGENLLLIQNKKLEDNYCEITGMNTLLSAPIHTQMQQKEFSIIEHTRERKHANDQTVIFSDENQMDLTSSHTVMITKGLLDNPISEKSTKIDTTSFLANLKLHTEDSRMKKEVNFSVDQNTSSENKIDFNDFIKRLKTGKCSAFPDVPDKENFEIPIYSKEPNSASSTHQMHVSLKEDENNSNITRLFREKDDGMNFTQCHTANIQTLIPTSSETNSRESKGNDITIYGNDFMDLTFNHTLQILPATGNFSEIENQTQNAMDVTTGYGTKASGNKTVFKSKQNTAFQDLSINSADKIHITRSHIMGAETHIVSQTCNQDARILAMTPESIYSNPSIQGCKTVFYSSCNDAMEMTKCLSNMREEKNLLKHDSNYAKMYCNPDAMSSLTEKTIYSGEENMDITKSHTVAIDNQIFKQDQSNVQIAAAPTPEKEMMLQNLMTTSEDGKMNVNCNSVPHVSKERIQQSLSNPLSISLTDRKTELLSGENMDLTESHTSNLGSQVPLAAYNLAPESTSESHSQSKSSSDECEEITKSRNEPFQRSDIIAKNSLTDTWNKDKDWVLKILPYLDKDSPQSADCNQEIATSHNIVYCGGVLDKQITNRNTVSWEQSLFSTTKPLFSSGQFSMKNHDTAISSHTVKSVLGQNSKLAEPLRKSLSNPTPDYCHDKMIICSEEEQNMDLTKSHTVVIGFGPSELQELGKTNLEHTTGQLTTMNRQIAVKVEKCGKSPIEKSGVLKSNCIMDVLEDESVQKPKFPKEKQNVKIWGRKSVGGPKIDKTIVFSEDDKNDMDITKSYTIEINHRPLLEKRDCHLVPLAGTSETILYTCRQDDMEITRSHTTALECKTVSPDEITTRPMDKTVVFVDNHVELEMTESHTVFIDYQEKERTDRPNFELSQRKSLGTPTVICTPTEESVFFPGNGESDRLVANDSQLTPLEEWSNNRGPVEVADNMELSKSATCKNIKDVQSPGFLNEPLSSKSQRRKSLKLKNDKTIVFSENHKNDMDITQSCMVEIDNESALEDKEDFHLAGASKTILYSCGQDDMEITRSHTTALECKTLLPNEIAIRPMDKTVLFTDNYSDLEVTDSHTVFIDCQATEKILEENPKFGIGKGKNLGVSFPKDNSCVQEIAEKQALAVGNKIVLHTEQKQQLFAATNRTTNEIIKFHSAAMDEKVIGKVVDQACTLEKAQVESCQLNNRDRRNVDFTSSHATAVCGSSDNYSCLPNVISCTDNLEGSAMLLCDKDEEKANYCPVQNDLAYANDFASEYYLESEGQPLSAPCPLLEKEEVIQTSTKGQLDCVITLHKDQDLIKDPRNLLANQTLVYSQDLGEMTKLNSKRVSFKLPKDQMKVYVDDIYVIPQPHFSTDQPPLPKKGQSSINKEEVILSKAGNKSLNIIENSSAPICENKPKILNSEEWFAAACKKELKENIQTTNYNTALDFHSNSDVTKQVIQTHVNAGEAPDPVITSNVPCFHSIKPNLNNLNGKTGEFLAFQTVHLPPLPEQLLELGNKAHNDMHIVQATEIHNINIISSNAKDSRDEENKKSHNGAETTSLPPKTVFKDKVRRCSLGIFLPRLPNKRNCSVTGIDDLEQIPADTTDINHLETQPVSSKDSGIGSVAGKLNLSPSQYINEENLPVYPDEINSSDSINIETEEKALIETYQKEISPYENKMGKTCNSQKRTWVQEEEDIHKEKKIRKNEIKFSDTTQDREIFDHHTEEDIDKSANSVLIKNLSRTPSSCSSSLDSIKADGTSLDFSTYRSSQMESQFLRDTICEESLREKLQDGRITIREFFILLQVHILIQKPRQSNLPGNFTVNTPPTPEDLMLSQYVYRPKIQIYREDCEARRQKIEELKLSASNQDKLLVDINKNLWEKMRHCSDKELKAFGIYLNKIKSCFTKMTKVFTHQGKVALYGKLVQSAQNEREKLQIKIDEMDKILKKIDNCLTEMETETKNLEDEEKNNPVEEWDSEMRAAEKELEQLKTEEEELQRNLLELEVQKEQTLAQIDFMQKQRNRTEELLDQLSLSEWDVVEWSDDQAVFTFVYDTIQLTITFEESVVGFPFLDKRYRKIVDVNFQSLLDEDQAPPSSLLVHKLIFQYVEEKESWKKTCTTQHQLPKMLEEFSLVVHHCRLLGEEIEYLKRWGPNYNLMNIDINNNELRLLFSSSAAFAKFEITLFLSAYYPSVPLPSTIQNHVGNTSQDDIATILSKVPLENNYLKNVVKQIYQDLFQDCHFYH

Effect of a mutation on the interaction, disrupting interaction:
G20S;N21Q;D22A
L45G;L49G
G93A;G95A
D65G
G93A;I94G;G95L
